From patent publication US20160289280A1, “Fusion protein of recombinant ganoderma immunoregulatory protein and human serum albumin, preparation method thereof, and application thereof” (priority 2013, published 2016)
Marks after values point to notes of the source that are not given here.

Key:
leukocytes = assay: treatment of rat models with leucopenia caused by cyclophosphamide, leukocyte count; assay type: in vivo; details: for leukocyte number before: baseline after CP modeling, before treatment
Description: Utilizing Wistar rats in the experiments, wherein 18 rats weighing about 100 g are utilized. […] The experiment has an rLZ-8 low-dosage group, an rLZ-8 middle-dosage group, an rLZ-8 high-dosage group, an rLZ-8-HSA low-dosage group, an rLZ-8-HSA middle-dosage group, an rLZ-8-HSA high-dosage group, and a positive medicine control group (utilizing the […]®). […] On the third day, the blood is sampled from the tail vein, and the leukocytes are counted by a cytoanalyzer. After successful modeling, the rats of each the group are respectively treated with the rLZ-8, the three kinds of the fusion proteins, or the positive medicine (the […]®) with the corresponding dosage, and the equal sterile saline is given to the rats of the normal control and a CP group. The blood is sampled from the tail vein on the first, third and seventh treatment days, and the leukocytes are counted by the cytoanalyzer. Medicine efficacy is analyzed according to a number difference of the leukocyte between before and after the treatment.

melanoma = assay: in vitro inhibition effect on melanoma, WST-1 method; assay type: cell-based; details: 24 h, x ± s, n = 9
Description: In vitro experiment: testing the inhibition effect of the fusion protein rLZ-8-HSA on the melanoma through a WST-1 method, preparing tissue suspension of the melanoma; adding 100 μl the tissue suspension into 900 μl 2% glacial acetic acid and counting with a microscope; adjusting a tissue concentration to 2×10^5/ml with DMEM comprising 2% calf serum; respectively preparing the fusion protein rLZ-8-HSA and the rLZ-8 with same molar concentration gradient, wherein there are 3 gradient concentrations, each concentration occupies 9 wells with 100 μl per well; adding tissue suspension with a concentration of 2×10^5/ml with 100 μl per well; shaking for evenly mixing, and then putting into a 37° C., 5% CO2 incubation device to incubate for 24 h; after incubation, adding WST-1 with 20 μl per well; putting into the 37° C., 5% CO2 incubation device to incubate for 3 h, then testing OD450 (with a BIO-RAD); wherein results are listed in table 3.

[1] = high-dosage 60 μg/kg (LZ-8 dosage)
[2] = low-dosage 15 μg/kg (LZ-8 dosage)
[3] = middle-dosage 30 μg/kg (LZ-8 dosage)

Molecule	leukocyte number relative to the rLZ-8 groups with the same dosage (leukocytes; first treatment day)	leukocyte number on the first treatment day (leukocytes; [1]) [L⁻¹]	leukocyte number on the seventh treatment day (leukocytes; [1]) [L⁻¹]	leukocyte number on the third treatment day (leukocytes; [1]) [L⁻¹]	leukocyte number before (leukocytes; [1]) [L⁻¹]	leukocyte number on the first treatment day (leukocytes; [2]) [L⁻¹]	leukocyte number on the seventh treatment day (leukocytes; [2]) [L⁻¹]	leukocyte number on the third treatment day (leukocytes; [2]) [L⁻¹]	leukocyte number before (leukocytes; [2]) [L⁻¹]	leukocyte number on the first treatment day (leukocytes; [3]) [L⁻¹]	leukocyte number on the seventh treatment day (leukocytes; [3]) [L⁻¹]	leukocyte number on the third treatment day (leukocytes; [3]) [L⁻¹]	leukocyte number before (leukocytes; [3]) [L⁻¹]	OD450, inhibition effect on melanoma (melanoma; protein 5.0 × 10^−9 mol/L)	OD450, inhibition effect on melanoma (melanoma; protein 10.0 × 10^−9 mol/L)	OD450, inhibition effect on melanoma (melanoma; protein 15.0 × 10^−9 mol/L)
rLZ-8-HSA: fusion protein of ganoderma immunoregulatory protein (LZ-8) and human serum albumin, linker GGGGSS, SEQ ID NO. 1 (protein, rLZ-8-HSA sequence) SDTALIFRLAWDVKKLSFDYTPNWGRGNPNNFIDTVTFPKVLTDKAYTYRVAVSGRNLGVKPSYAVESDGSGKVNFLEYNSGYGIADTNTIGVFVVDPDTNNDFIIAGWNGGGGSSMKWVTFISLLFLFSSAYSRGVFRRDAHKSEVAHRFKDLGEENFKALVLIAFAGYLGGCPFEDHVKLVNEVTEFAKTCVADESAENCDKSLHTLFGDKLCTVATLRETYGEMADCCAKGEPERNECFLGHKDDNPNLPRLVRPEVDVMCTAFHDNEETFLKKYLYEIARRHPYFYAPELLFFAKRYKAAFTECCGAADKAACLLPKLDELRDEGKASSAKGRLKCASLGKFGERAFKAWAVARLSGRFPKAEFAEVSKLVTDLTKVHTECCHGDLLECADDRADLAKYICENGDSISSKLKECCEKPLLEKSHCIAEVENDEMPADLPSLAADFVESKDVCKNYAEAKDVFLGMFLYEYARRHPDYSVVLLLRLAKTYETTLEKCCAAADPHECYAKVFDEFKPLVEEPGNLIKGNCELFEGLGEYKFGNALLVRYTKKVPGVSTPTLVEVSRNLGKVGSKCCKHPEAKRMPCAEDYLSVVLNGLCVLHEKTPVSDRVTKCCTESLVNRRPCFSALEVDETYVPKEFNAETFTFHADICTLSEKERGIKKGTALVELVKHKPKATKEGLKAVMDDFAAFVEKCCKADDKETCFAEEGKKLVAASGAALGL	about 2 times	8.4e+09	1.55e+10	1.44e+10	3.33e+09	8.5e+09	1.32e+10	1.08e+10	3.11e+09	9.2e+09	1.34e+10	1.198e+10	2.89e+09	0.411 ± 0.31	0.212 ± 0.29	0.118 ± 0.11
rLZ-8: recombinant ganoderma immunoregulatory protein which is not fused, comparator (protein, UniProt P14945 2-111, looked up) Immunomodulatory protein Ling …: SDTALIFRLAWDVKKLSFDYTPNWGRGNPNNFIDTVTFPKVLTDKAYTYRVAVSGRNLGVKPSYAVESDGSQKVNFLEYNSGYGIADTNTIQVFVVDPDTNNDFIIAQWN	–	5.4e+09	1.45e+10	9.6e+09	4.09e+09	4.6e+09	1.12e+10	9.3e+09	3.71e+09	5.1e+09	1.278e+10	9.7e+09	3.12e+09	0.427 ± 0.44	0.372 ± 0.21	0.302 ± 0.24
